Data as given in doi:10.1101/2022.02.20.481182 (bioRxiv, 2022).
Positions count from the first letter of the chain named. In names and notes the source's numbering stands. Blank lines part the entries; values can stand above or below the binder they belong to. No end group written: not given here.

B1: BRPF2 bromodomain, wild-type, N-terminal His6-tagged (domain or fragment)
chain: EQVAMELRLTPLTVLLRSVLDQLQDKDPARIFAQPVSLKEVPDYLDHIKHPMDFATMRKRLEAQGYKNLHEFEEDFDLIIDNCMKYNARDTVFYRAAVRLRDQGGVVLRQARREVDSIGLEEASGMHLPERPA
B2: BRPF2 bromodomain I586F mutant (domain or fragment)
chain: B1 chain with I31F

Key:
Test in all cases: ITC
[1] = target: B1
[2] = target: histone H4K5acK8ac (1-15) peptide (UniProt P62805 2-16, acetyl-lysine at K5 and K8)
[3] = target: histone H4K12ac (1-15) peptide (UniProt P62805 2-16, acetyl-lysine at K12)
[4] = target: histone H4K8ac (1-15) peptide (UniProt P62805 2-16, acetyl-lysine at K8)
[5] = target: histone H4K5ac (1-15) peptide (UniProt P62805 2-16, acetyl-lysine at K5)
[6] = target: histone H4K8acK12ac (1-15) peptide (UniProt P62805 2-16, acetyl-lysine at K8 and K12)
[7] = target: histone H4K5acK12ac (1-15) peptide (UniProt P62805 2-16, acetyl-lysine at K5 and K12)

Kd [1]: 20.5 ± 1.4 µM
Binder: GKGGAK(Ac)RHRKV (peptide, UniProt P62805 12-22, looked up) [histone H4K16ac (11-21) peptide]

Kd [1]: 10.2 ± 0.2 µM
Binder: KSTGGK(Ac)APRKQ (peptide, UniProt P68431 10-20, looked up) [histone H3K14ac (9-19) peptide]

Binder: B1
Kd [2]: 28.5 ± 1.6 µM | Kd [3]: 18.2 ± 1.2 µM | Kd [4]: 6.2 ± 0.6 µM | Kd [5]: 3.5 ± 0.4 µM | Kd [6]: 44.7 ± 3.5 µM | Kd [7]: 3.2 ± 0.1 µM

Binder: B2
binding result [5]: binds
